Target: T1, FZD8 binding to Wnt3A (Homo sapiens, UniProt Q9H461)
T1 construct: amino acids 1-157 of FZD8 linked in-frame to human IgG1 Fc
T1 sequence (Q9H461 28-157): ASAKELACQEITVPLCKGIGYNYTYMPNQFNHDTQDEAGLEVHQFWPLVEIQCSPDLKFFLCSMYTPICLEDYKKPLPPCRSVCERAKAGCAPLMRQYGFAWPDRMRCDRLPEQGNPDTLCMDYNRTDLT
Assay: Blocking of FZD8-Fc binding to Wnt3A (protein A depletion, STF293 reporter readout)
Type: biochemical
Conditions: in the absence of 18R8
Experimental: To assess the ability of 18R8 to block the binding of FZD to Wnt, 2 μl of 1.32 μg/μl soluble FZD8-Fc containing the Fri domain (amino acids 1-157 of FZD8 linked in-frame to human IgG1 Fc) was added to culture medium to bind Wnt3A (added as 20 μl of Wnt3A conditioned medium) either alone or in the presence of the 18R8 IgG antibody (added as 4 μl of 3.71 μg/μl). The mixtures were incubated either alone or in the presence of Protein A sepharose beads (GE Healthcare products; 20 μl of 50% solution in PBS) for two hrs at 4° C. After the incubation, the protein A beads (and any proteins complexed to the protein A beads) in each sample were removed by spinning and the supernatant was assayed for ability to induce 8×TCF luciferase activity. The supernatant was added to STF293 cells, which stably express 8×TCF (eight copies of the TCF-binding domain upstream of a firefly luciferase reporter gene) to measure canonical Wnt signaling levels and which were cultured in DMEM supplemented with antibiotics and 10% FCS. Eighteen hours following treatment of the STF293 cells, luciferase levels were measured using a dual luciferase assay kit (Promega; Madison, Wis.).

B1: Fzd8-Fc: soluble FZD8-Fc containing the Fri domain (amino acids 1-157 of FZD8 linked in-frame to human IgG1 Fc) (protein)
chain: ASAKELACQEITVPLCKGIGYNYTYMPNQFNHDTQDEAGLEVHQFWPLVEIQCSPDLKFFLCSMYTPICLEDYKKPLPPCRSVCERAKAGCAPLMRQYGFAWPDRMRCDRLPEQGNPDTLCMDYNRTDLT
modifications: left off: a dimerising Fc or GST
Q: How did the “effect on Wnt3A-stimulated signaling” value turn out when B1 was run?
A: inhibit the ability of Wnt3A to stimulate signaling

Source: US8975044B2, “Polynucleotides encoding for frizzled-binding agents and uses thereof” (OncoMed Pharmaceuticals, Inc., priority 2008, dated 2015)
